Experimental data as given in publication PMC4810246.

B1: porcine aminopeptidase N (pAPN) ectodomain with a C-terminal His6 tag (receptor)
chain: QSKPWNRYRLPTTLLPDSYNVTLRPYLTPNADGLYIFKGKSIVRLLCQEPTDVIIIHSKKLNYTTQGHMVVLRGVGDSQVPEIDRTELVELTEYLVVHLKGSLQPGHMYEMESEFQGELADDLAGFYRSEYMEGNVKKVLATTQMQSTDARKSFPCFDEPAMKATFNITLIHPNNLTALSNMPPKGSSTPLAEDPNWSVTEFETTPVMSTYLLAYIVSEFQSVNETAQNGVLIRIWARPNAIAEGHGMYALNVTGPILNFFANHYNTSYPLPKSDQIALPDFNAGAMENWGLVTYRENALLFDPQSSSISNKERVVTVIAHELAHQWFGNLVTLAWWNDLWLNEGFASYVEYLGADHAEPTWNLKDLIVPGDVYRVMAVDALASSHPLTTPAEEVNTPAQISEMFDSISYSKGASVIRMLSNFLTEDLFKEGLASYLHAFAYQNTTYLDLWEHLQKAVDAQTSIRLPDTVRAIMDRWTLQMGFPVITVDTKTGNISQKHFLLDSESNVTRSSAFDYLWIVPISSIKNGVMQDHYWLRDVSQAQNDLFKTASDDWVLLNVNVTGYFQVNYDEDNWRMIQHQLQTNLSVIPVINRAQVIYDSFNLATAHMVPVTLALDNTLFLNGEKEYMPWQAALSSLSYFSLMFDRSEVYGPMKKYLRKQVEPLFQHFETLTKNWTERPENLMDQYSEINAISTACSNGLPQCENLAKTLFDQWMSDPENNPIHPNLRSTIYCNAIAQGGQDQWDFAWGQLQQAQLVNEADKLRSALACSNEVWLLNRYLGYTLNPDLIRKQDATSTINSIASNVIGQPLAWDFVQSNWKKLFQDYGGGSFSFSNLIQGVTRRFSSEFELQQLEQFKKNNMDVGFGSGTRALEQALEKTKANIKWVKENKEVVLNWFIEHS

How the values were obtained:
[1] = target: porcine aminopeptidase N (pAPN) ectodomain with a C-terminal His6 tag (UniProt P15145); assay: ELISA; details: read off a plot
[2] = target: the three mutant proteins; assay: ELISA; plates coated overnight at 4 °C with IgG4 Fc-tagged S1 fragments or mutants (60 μg/mL or 120 to 1.875 μg/mL), blocked with BSA, incubated with His6-tagged pAPN (50 μg/mL) 2 h at RT; anti-His detection
[3] = S protein 1.875 μg/mL, parent: est. 0.25
[4] = S protein 3.75 μg/mL, parent: est. 0.42
[5] = S protein 7.5 μg/mL, parent: est. 0.70
[6] = S protein 15 μg/mL, parent: est. 1.2
[7] = S protein 30 μg/mL, parent: est. 1.7
[8] = S protein 60 μg/mL, parent: est. 2.0
[9] = S proteins coated at 60 μg/mL, pAPN in solution, parent: est. 1.9

Molecule	response [1, 3]	response [1, 4]	response [1, 5]	response [1, 6]	response [1, 7]	response [1, 8]	response [1, 9]	percent reduction of receptor-binding activity against wild-type S477–629 [2]
PEDV CHGD-01 S1 C-terminus fragment S477-629 with a C-terminal IgG4 Fc tag residues 521-534 replaced by HCoV-NL63 residues 493-506 (RBM1-1)	0.13 Abs (630 nm)	0.25 Abs (630 nm)	0.6 Abs (630 nm)	0.98 Abs (630 nm)	1 Abs (630 nm)	1.1 Abs (630 nm)	1.2 Abs (630 nm)	
PEDV CHGD-01 S1 C-terminus fragment S477-629 with a C-terminal IgG4 Fc tag residues 556-563 replaced by HCoV-NL63 residues 534-541 (RBM2-1)	0.15 Abs (630 nm)	0.32 Abs (630 nm)	0.7 Abs (630 nm)	0.88 Abs (630 nm)	0.93 Abs (630 nm)	1.1 Abs (630 nm)	1.2 Abs (630 nm)	
PEDV CHGD-01 S1 C-terminus fragment S477-629 with a C-terminal IgG4 Fc tag residues 607-615 replaced by SGSGS (RBM3-2)	0.05 Abs (630 nm)	0.06 Abs (630 nm)	0.13 Abs (630 nm)	0.34 Abs (630 nm)	0.8 Abs (630 nm)	1.2 Abs (630 nm)	1.4 Abs (630 nm)	
B1								30 to 40%
